Test results: the domain aggregation screens of Martell et al. (2025)

Assay: soluble fraction after stress (log2 fold change); higher = more stays soluble; pooled small domains, quantitative proteomics
Conditions: stress: 50 degC
How it was run: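 Pooled custom libraries of small protein domains were each held under stress at 50°C. The read-out, high-throughput quantitative proteomics, tracked how much of each protein stayed soluble. This is reported as a base-two log fold change used to indicate aggregation propensity. Higher values mean more protein remains in solution.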

Row | Sequence | soluble fraction (log2)
1 | HMIGEKLKEIREKTGMNKKEFAQYLGLKYTTYNNYETEAREPASDFLILISTKFDVSIDYLLGLQ | -0.674
2 | HMKRIFEKKVVTESLNGLRLDKAAATLFADFSRNELGQWIKDEALLVNGKAKKVKEKVSEGDVLALDVELI | 0.0881
3 | HMQSISLEEAKSAALDDAQLGIDEVEFLKTERNTDGDTSYYDIQFLVNGTIYKYQINTETGAILHVDYEA | -0.052
4 | HMENLFPDYTMQDYRIVRSELSSKFKVQTVPVTTATATENKIVRQEPEAGSRITEGMTVILYYSIGPE | -0.0582
5 | HMSKKQEQALQSREKLLDAATALFAEHGYRDTSVQAIGEKAGVSRGSIFWHFGSKEGLLWAVVERAFTA | 0.265
6 | HMKDLDSLSQEAKSVYAVFSDKPIHIDDIKRKTGLDFSKLFKAVTELELAELISSGEGKMYSL | -0.0108
7 | HMLERPLFTPEQYGRFRGKEARIRLSNPVEGRKTLTGSIVEATEERIVVFVEEEEREVTVPFQWIKSGNL | -0.435
8 | HMKVIAEESYRILVDAIEKLPPQMKSIMQLALEGKSNPEIAETLNISGETVHSQKKIAYRKLRVYLKD | -1.17
9 | HMKIELTDQQKSLVVDEWNKGEANPPSLLQLIRLAYPDQPHLDGRSKEGKAVKAFLATRDINPLA | 0.0239
10 | HMSVDDEQLLKIIDDIFQQNPQAVTDAKTDSNAIHFLIGQVMKETKGHADHAISKEIIEKKLS | 0.00481
11 | HMQPDPAFVAWVDANPWYKENRTLRALVHDYAEEVKRQEPALIGTAFLDRVKQLVQSEHPELFD | -0.0926
12 | HMGTHVVQEGEYLDLIIEKTIPGSPIRKDLLRKAFVKLNPSAFGGRGNPNYIFARKKLKVPSVEDLKAVIF | -0.0708
13 | HMNLEIGAIIKSLRAKHKYTQEQLSAFLGVTPQAVSRWEAGNGYPDIELLPAIARFFEVSTDELLGL | -0.428
14 | HMTALAVGDRVKMDKSATIYGTMRKFAAWVYATKLYVRGIDGNRVVVSTLKSGAITGAVDKKHLTK | -1.12
15 | HMKSKNRLTKSYLDSIPGVGRKRKSILLRYFGSIDQIKRASSEDIANVPGIGKITSDLVYNYFNQ | -0.495
16 | HMSSDDEAFKRELVGLIPHLRAFARTLTGDPTAADDLAQDAMMKAWDARASYQMGTNMKAWTFMILRNQFY | -2.22
17 | HMEILVSTRRHEIASLLSRKKRVSFFELFPEKTKEYVVATFLAILEMAKAREVNITQEDTFDEIIVEEA | -0.43
18 | HMDLAPLQTVDIAINYAKAAELAAILKSSEGGILSDRGGVTVDERTNTLLIRDTLESIDEARKTI | 0.122
19 | HMSSGSLLTEREIEILAEMAKGLTNKAIGEKLFISVATVKTHILNIYRKLEVSSRVTAVNKAKQMRL | -1.93
20 | HMRQSKMREAILAAVSAQKLEISDLHVWRIGEQRYAAIIGLATTQAESVSALRDSLAQMDKLVHLTIDQ | -1.89
21 | HMSDHYEVLGVDRNATDDQIKKAYRRLARELHPDVNDAPESQEKFKLVTHAYEVLSDPDERRKYDMG | 0.0925
22 | HMSEQIALQFAKAKQHHTGIALKGIEALELRYKGYTGKEIAALYHTSPKSVFSWISRAKQKLRQN | -0.375
23 | HMYQKERDKEISEIETFLKKITNANGTRAYSDESIADMSYVELLNLYEGITSKLTEEEIENI | 0.131
24 | HMPDLSYVDEVLNRYKGHKGTLITVLQQVQAHKGYLEKEALERVARSMGVPTARIYGVVTFYAQFR | 0.0318
25 | HMQYTTDEVRERVLSVLNQLLLRWIVREGKDMFNIQANAVEISEGIKGELNTELEKIGLAATGFQIDSV | -0.52
26 | HMDADRLSPREREMLQFIARGQSNKEIARALELAESTVKIHVQNMLRKLNLSSRVQAAVFAVENGLG | -0.109
27 | HMSNTVEDLIDDIGTVTKDSKDKIDAARKAYDGLTEDQKKLVPDSVLKTLTDAEAAYAKLTK | -0.0576
28 | HMTGQLTEEELKQRQERAMSNPEIQGILSDPVMRQVLQDMSTDPKAAAEHQRNPTIMAKIQKLINAGIVQV | 0.11
